This test concerns the target HSP90N (human HSP90 isoform that lacks the N-terminal ATPase domain) (human) (UniProt P07900). Nature of the test: AUC; sedimentation velocity of fractions from the S-300 column, 0.3 mg/ml in 100 mM Tris-HCl, 45,000 rpm, 20°C, c(s) distribution (SEDFIT).

From article PMC3102065 come the findings set out here.

Values joined by “and” are separate entries in the source; they are usually repeats but may differ in a detail not shown here. Equal entries are not always repeated.

Usually stoichiometry N stands for a count of units in the complex or per binding partner. For the substance “HSP90N (human HSP90 isoform that lacks the N-terminal ATPase domain) (from UniProt P07900-1 224-732) (natural protein)”, the stoichiometry N was 2 and 4 and 6.
